Test results reported in patent US20220204585A1 (RUSH UNIVERSITY MEDICAL CENTER, published 2022).

T1: CD11b A-domain CD11bA-D242A/F275S/F302G, construct BZ348014 (human, UniProt P11215 148-337)
T1 construct: the antigen on which the libraries were enriched; also called BZ348014 antigen
T1 chain: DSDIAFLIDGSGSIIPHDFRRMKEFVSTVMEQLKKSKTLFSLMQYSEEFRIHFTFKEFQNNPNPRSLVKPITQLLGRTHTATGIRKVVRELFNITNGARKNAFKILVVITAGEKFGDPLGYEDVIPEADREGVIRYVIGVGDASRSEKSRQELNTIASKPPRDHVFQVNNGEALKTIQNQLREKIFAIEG

T2: CD11b A-domain CD11bA-D140A/F275S/F302G, construct BZ348010 (human, UniProt P11215 148-337)
T2 chain: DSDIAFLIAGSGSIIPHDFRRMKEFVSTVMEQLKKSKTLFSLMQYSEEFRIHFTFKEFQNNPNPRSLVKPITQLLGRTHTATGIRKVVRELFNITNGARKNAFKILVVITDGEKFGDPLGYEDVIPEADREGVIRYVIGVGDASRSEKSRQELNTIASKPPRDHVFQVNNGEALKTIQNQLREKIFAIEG

T3: CD11b A-domain CD11bA-D242A, construct BZ348011 (human, UniProt P11215 148-337)
T3 construct: MIDAS residue D242 replaced with alanine (no MIDAS metal)
T3 chain: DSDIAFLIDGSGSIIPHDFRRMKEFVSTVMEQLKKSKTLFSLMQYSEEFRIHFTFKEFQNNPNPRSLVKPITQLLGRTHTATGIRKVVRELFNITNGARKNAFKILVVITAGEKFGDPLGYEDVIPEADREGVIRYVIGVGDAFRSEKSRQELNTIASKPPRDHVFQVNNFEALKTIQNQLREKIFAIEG

T4: CD11b A-domain CD11bA-D140A, construct BZ348008 (human, UniProt P11215 148-337)
T4 construct: MIDAS residue D140 replaced with alanine (no MIDAS metal)
T4 chain: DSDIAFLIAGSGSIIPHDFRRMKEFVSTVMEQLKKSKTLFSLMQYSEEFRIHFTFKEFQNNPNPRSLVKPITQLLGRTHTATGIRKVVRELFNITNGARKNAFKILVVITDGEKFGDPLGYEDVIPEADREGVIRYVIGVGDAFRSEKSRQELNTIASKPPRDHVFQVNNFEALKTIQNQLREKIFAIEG

T5: CD11b A-domain CD11bA-F275S/F302G, construct BZ348013 (human, UniProt P11215 148-337)
T5 chain: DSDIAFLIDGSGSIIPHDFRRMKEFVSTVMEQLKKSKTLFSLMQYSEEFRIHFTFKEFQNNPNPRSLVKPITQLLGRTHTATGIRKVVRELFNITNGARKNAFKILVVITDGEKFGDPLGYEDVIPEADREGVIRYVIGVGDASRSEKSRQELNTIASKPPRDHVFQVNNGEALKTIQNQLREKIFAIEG


How the values were obtained:
[1] = target: T1, CD11b A-domain …; assay: phage ELISA, phage diluted 1:5 on coated antigen (~5 ug/ml), anti-M13-HRP
Experimental: (§1) After 2 rounds of enrichment against the primary target, positive binders were identified by phage ELISA and analyzed by restriction mapping & sequencing for identification of unique clones. Small scale phage growths were diluted 1:5 in TBS+casein. Nunc Maxi-Sorp strip wells were coated at ˜5 ug/ml of each test protein overnight at 4° C. and blocked with TBS+casein. The diluted phage were applied and allowed to bind for 1 hour with shaking. The wells were washed 4 times with TBS+0.05% Tween20 and twice with TBS. Bound phage were detected by incubation for 1 hour with anti-M13-HRP and after washing as above, developed with TMB. Absorbance at 450 nm was read after acidification of the wells.

[2] = target: T2, CD11b A-domain …; assay: counterscreen phage ELISA on coated antigen
Experimental: as §1

[3] = target: T6, CD11b A-domain CD11bA WT (WT residues 132-321), construct BZ348007 (human, UniProt P11215 148-337); assay: counterscreen phage ELISA on coated antigen
T6 construct: Residues numbered on mature CD11b (signal peptide of 16 residues removed); also called His-TEV-CD11b
Experimental: as §1

[4] = target: T3, CD11b A-domain CD11bA-D242A, construct …; assay: counterscreen phage ELISA on coated antigen
Experimental: as §1

[5] = target: T4, CD11b A-domain CD11bA-D140A, construct …; assay: counterscreen phage ELISA on coated antigen
Experimental: as §1

[6] = target: T5, CD11b A-domain CD11bA-F275S/F302G, …; assay: counterscreen phage ELISA on coated antigen
Experimental: as §1

[7] = target: T1, CD11b A-domain …; assay: counterscreen phage ELISA on coated antigen
Experimental: as §1

[8] = target: T2, CD11b A-domain …; assay: phage ELISA dilution series, phage diluted 1:16
[9] = target: T6, CD11b A-domain CD11bA WT (WT residues …); assay: phage ELISA dilution series, phage diluted 1:16
[10] = target: T3, CD11b A-domain CD11bA-D242A, construct …; assay: phage ELISA dilution series, phage diluted 1:16
[11] = target: T4, CD11b A-domain CD11bA-D140A, construct …; assay: phage ELISA dilution series, phage diluted 1:16
[12] = target: T5, CD11b A-domain CD11bA-F275S/F302G, …; assay: phage ELISA dilution series, phage diluted 1:16
[13] = target: T1, CD11b A-domain …; assay: phage ELISA dilution series, phage diluted 1:16
[14] = target: T2, CD11b A-domain …; assay: phage ELISA dilution series, phage diluted 1:50
[15] = target: T6, CD11b A-domain CD11bA WT (WT residues …); assay: phage ELISA dilution series, phage diluted 1:50
[16] = target: T3, CD11b A-domain CD11bA-D242A, construct …; assay: phage ELISA dilution series, phage diluted 1:50
[17] = target: T4, CD11b A-domain CD11bA-D140A, construct …; assay: phage ELISA dilution series, phage diluted 1:50
[18] = target: T5, CD11b A-domain CD11bA-F275S/F302G, …; assay: phage ELISA dilution series, phage diluted 1:50
[19] = target: T1, CD11b A-domain …; assay: phage ELISA dilution series, phage diluted 1:50
[20] = target: T2, CD11b A-domain …; assay: phage ELISA dilution series, phage diluted 1:5
[21] = target: T6, CD11b A-domain CD11bA WT (WT residues …); assay: phage ELISA dilution series, phage diluted 1:5
[22] = target: T3, CD11b A-domain CD11bA-D242A, construct …; assay: phage ELISA dilution series, phage diluted 1:5
[23] = target: T4, CD11b A-domain CD11bA-D140A, construct …; assay: phage ELISA dilution series, phage diluted 1:5
[24] = target: T5, CD11b A-domain CD11bA-F275S/F302G, …; assay: phage ELISA dilution series, phage diluted 1:5
[25] = target: T1, CD11b A-domain …; assay: phage ELISA dilution series, phage diluted 1:5

Row | Binder | Absorbance at 450 nM [1] | Absorbance at 450 nM [2] | Absorbance at 450 nM [3] | Absorbance at 450 nM [4] | Absorbance at 450 nM [5] | Absorbance at 450 nM [6] | Absorbance at 450 nM [7] | other results
1 | Clone 13 149-014-13 VH only (other) VH: EVQLLESGGGLVQPGGSLRLSCAASGFTFSSDLMSWVRQAPGKGLEWVSAISGSGGSTYYADSVKGRFTISRDNSKNTLYLQMNSLRAEDTAVYYCAKNEVIFDYWGQGTLVTVSSASTKGLSMFDYWGQGTKVEIK | 0.499 | 0.495 | 0.169 | 0.183 | 0.228 | 0.954 | 0.866 | 
2 | Clone 14 149-014-14 (VK-Linker-VH) (scFv, From the naive human scFv phage display library) scFv: DVVMTQSPLSLPATLGQPASISCRSSQSLVYTDGNTYLNWFQQRPGQSPRRLIYKVSNRDSGVPDRFSGSGSGTHFTLKISRVEAEDVGVYYCMQGTHWPPTFGQGTKVEIKEGKSSGSGSESKASEVQLVQSGAEVKKPGASVKVSCKASGGTFSSYAISWVRQAPGQGLEWMGGIIPIFGTANYAQKFQGRVTITADESTSTAYMELSSLRSEDTAVYYCASSGVDYWGQGTLVTVSS | 0.598 | 0.659 | 0.22 | 0.259 | 0.38 | 0.953 | 1.06 | Absorbance at 450 nM [8]: 0.038; Absorbance at 450 nM [9]: 0.101; Absorbance at 450 nM [10]: 0.054; Absorbance at 450 nM [11]: 0.08; Absorbance at 450 nM [12]: 0.278; Absorbance at 450 nM [13]: 0.356; Absorbance at 450 nM [14]: 0.04; Absorbance at 450 nM [15]: 0.06; Absorbance at 450 nM [16]: 0.045; Absorbance at 450 nM [17]: 0.047; Absorbance at 450 nM [18]: 0.078; Absorbance at 450 nM [19]: 0.059; Absorbance at 450 nM [20]: 0.046; Absorbance at 450 nM [21]: 0.557; Absorbance at 450 nM [22]: 0.2; Absorbance at 450 nM [23]: 0.372; Absorbance at 450 nM [24]: 1.38; Absorbance at 450 nM [25]: 0.782
3 | Clone 6 149-014-6 (VL-linker-VH) (scFv, From the naive human scFv phage display library) scFv: QSVLTQPPSASGTPGQRVTISCSGSSSNIGSNYVSWYQQLPGTAPKLLIYDNNKRPSGIPDRFSGSKSGTSATLGITGLQTGDEADYYCGTWDSSLSALYVFGAGTKLTVLGEGKSSGSGSESKASQVQLQESGPGLVKPSETLSLTCSVSGGSTSSYYWSWIRQPPGKGLEWIGYISNSGSTNYNPSLKSRVTMSIDTSNNQFSLKLSSVTAADTAVYYCASHLGATWRWGQGTLVTVSS | 0.641 | 1.51 | 0.567 | 0.169 | 0.058 | 1.3 | 1.25 | 
4 | Clone 5 149-014-5 (VL-Linker-VH) (scFv, From the naive human scFv phage display library) scFv: SSELTQDPAVSVALGQTVRITCQGDSLRSYYASWYQQKPGQAPVLVIYGKNNRPSGIPDRFSGSTSGNFASLTITGAQAEDGADYYCHSRDSSGNHLVFGGGTKLTVLGEGKSSGSGSESKASEVQLVQSGAEVKKPGESLKISCKGSGYSFTSYWIGWVRQMPGKGLEWMGIIYPGDSDTRYSPSFQGQVTISADKSISTAYLQWSSLKASDTAMYYCARRARGAFDIWGQGTLVTVSS | 1.37 | 1.74 | 1.78 | 1.77 | 1.85 | 1.65 | 1.69 | 
